Measurements: patent US20230374088A1 (GENERAL HOSPITAL, published 2023)
Blank lines part the entries; values can stand above or below the binder they belong to.

What was measured:
[1] = molecular target: T1, c-Myc-Gli2 (418-594aa) ZF2-mut (H493A, R496A) (human, UniProt P10070 418-594); assay: pull-down on anti-FLAG beads, anti-c-myc blot, Expi293F cells
T1 construct: also called Gli2 ZF-2 (H493A/R496A); not shown: c-myc tag from pCMV-BICEP-4 (MCS2)
T1 sequence (looked up): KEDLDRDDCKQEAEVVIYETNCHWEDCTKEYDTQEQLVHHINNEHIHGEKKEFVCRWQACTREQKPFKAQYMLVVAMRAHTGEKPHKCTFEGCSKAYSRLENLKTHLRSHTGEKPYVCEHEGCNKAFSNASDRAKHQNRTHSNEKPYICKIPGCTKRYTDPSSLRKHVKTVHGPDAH
Excerpt: (§1) Immunoprecipitation (IP) using anti-FLAG magnetic beads. Input (cell lysate), FT (flow through), wash and beads samples were immunoblotted (IB) with anti c-Myc antibody to detect Gli2. […] The blots are representative images of a minimum of three repeats. Gli2-ZF mutants are as follows: ZF2-mut (H493A, R496A), ZF3-mut (H503A, R516A, K521A), ZF4-mut (R550A, K552A, R556A). Kif7-CC mutants are as follows: S1-mut (E500A, E501A, E502A, D505A), S2-mut (E511A, E515A), S3-mut1 (E526A, E529A) and S3-mut2 (E530A, R535A).
(§2) To narrow down the residues that participate in binding, we analyzed the model of the Kif7-SCC:Gli2-ZF complex using PDBsum server (De Beer et al., Nucleic acids research, 42, D292-D296, 2014). We performed alanine scanning mutagenesis of the charged residues on Gli2-ZF that came up as part of the binding interface in the PDBsum analysis and analyzed their binding with pull-down assay (FIG. 3D). […] We systematically mutated the residues to alanine and performed the pull-down assay with Gli2-ZF.

[2] = molecular target: T2, c-Myc-Gli2 (418-594aa) ZF3-mut (H503A, R516A, K521A) (human, UniProt P10070 418-594); assay: as above
T2 construct: also called ZF-3 (H503A/R516A/K521A); not shown: c-myc tag from pCMV-BICEP-4 (MCS2)
T2 sequence (looked up): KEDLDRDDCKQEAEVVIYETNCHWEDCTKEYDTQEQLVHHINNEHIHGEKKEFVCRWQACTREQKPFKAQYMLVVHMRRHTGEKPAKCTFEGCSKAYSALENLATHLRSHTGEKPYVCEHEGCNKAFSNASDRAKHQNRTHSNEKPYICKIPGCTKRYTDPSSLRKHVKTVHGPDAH
Excerpt: as §1, §2

[3] = molecular target: T3, c-Myc-Gli2 (418-594aa) (human, UniProt P10070 418-594); assay: as above
T3 construct: Expressed in Expi293F cells for the pull-down; also called Gli2-ZF (in the pull-down); not shown: c-myc tag from pCMV-BICEP-4 (MCS2), N-terminal by the name
T3 sequence (looked up): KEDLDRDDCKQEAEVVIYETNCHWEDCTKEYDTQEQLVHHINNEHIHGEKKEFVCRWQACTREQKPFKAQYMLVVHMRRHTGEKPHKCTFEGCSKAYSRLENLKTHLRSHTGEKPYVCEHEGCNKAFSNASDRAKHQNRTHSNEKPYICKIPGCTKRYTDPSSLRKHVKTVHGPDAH
Excerpt: as §1, §2

[4] = molecular target: T4, Kif7-DM (1-543aa) (human, UniProt Q2M1P5 1-543); assay: cryo-EM of microtubule-bound Kif7-DM with AMP-PNP, 3.9 Å
T4 construct: As used for cryo-EM, without GFP; Expressed with a TEV-cleavable N-terminal 6xHis-SUMOstar tag; also called Kif7 dimer; dimeric Kif7
T4 sequence: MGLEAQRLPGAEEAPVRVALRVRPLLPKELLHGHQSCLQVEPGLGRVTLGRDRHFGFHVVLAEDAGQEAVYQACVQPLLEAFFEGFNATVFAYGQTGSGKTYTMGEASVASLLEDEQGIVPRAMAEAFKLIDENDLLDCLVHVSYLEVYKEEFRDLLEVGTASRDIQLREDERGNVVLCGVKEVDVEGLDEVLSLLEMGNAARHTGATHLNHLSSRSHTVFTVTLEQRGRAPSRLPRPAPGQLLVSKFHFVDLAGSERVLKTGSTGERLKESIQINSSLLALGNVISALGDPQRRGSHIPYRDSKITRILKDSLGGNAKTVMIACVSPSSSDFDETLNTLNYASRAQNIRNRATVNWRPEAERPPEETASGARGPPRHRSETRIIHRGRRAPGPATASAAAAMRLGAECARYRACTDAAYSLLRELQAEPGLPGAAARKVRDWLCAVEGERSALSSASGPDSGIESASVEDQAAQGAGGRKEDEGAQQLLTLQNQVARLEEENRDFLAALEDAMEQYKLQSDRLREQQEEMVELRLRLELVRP
Method: For grid preparation, all Kif7-GIi2 preparations were diluted using BRB80 (80 mM 1,4-piperazinediethanesulfonic acid [PIPES], pH 6.8, 1 mM MgCl₂, 1 mM ethylene glycol tetraacetic acid [EGTA]). Porcine brain microtubules were prepared from frozen aliquots of 5 mg/ml tubulin (Cytoskeleton, Denver, CO) in polymerization buffer (BRB80; 80 mM PIPES, pH 6.8, 1 mM EGTA, 2 mM MgCl₂, 3 mM GMP-CPP, 10% dimethyl sulfoxide (DMSO)) at 37° C. for 2-3 hours. The polymerized microtubules were then incubated at room temperature for several hours or overnight before use. The following day or several hours later the microtubules were spun down on a bench top centrifuge 14.00 RPM 10 min to pellet. The pellet was resuspended in polymerization buffer without DMSO. The Kif7 dimer and monomer preparations were made by mixing the Kif7 with the GIi2 or GIi2-SNAP for 1 hour prior to incubation with the microtubules. Kif7-dimer (0.36 mg/ml) plus GIi2 (0.2 mg/ml) in BRB plus 2 mM ADP, 2 mM MgcI2, Kif7-monomer (0.45 mg/mL) or Kif7 dimer plus GIi2_SNAP (0.30 mg/mL) plus BRB80 with 1 mM AMPPNP and 1 mM MgCl₂. All microtubule samples were prepared on 1.2/1.3 400-mesh grids (Electron Microscopy Services) Grids were glow-discharged before sample application. The cryo-samples were prepared using a manual plunger, which was placed in a homemade humidity chamber that varied between 80 and 90% relative humidity. […]

[5] = molecular target: T5, Kif27-DM-GFP (1-580aa) (human, UniProt Q86VH2 1-580); assay: TIRF microscopy on microtubules; 100 nM Gli2-ZF-SNAP-Alexa647 with 100 nM kinesin
T5 construct: range 1-580; Called dimeric; not shown: GFP tag, C-terminal by the name
T5 sequence (looked up): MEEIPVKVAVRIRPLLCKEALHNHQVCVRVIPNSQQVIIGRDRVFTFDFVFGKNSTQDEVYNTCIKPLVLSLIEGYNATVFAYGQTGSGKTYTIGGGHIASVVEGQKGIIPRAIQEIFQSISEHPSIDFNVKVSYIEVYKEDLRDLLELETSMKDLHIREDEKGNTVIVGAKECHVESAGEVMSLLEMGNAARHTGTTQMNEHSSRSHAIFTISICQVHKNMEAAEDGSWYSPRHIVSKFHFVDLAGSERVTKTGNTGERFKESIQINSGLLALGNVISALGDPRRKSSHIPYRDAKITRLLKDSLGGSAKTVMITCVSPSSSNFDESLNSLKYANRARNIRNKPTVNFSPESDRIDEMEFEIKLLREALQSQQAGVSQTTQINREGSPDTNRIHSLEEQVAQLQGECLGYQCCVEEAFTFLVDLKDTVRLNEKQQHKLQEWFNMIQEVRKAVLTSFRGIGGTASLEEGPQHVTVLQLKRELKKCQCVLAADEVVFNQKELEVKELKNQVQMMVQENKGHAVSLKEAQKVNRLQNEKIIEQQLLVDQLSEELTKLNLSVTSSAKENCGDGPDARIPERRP

binding result [1]: no binding | binding result [2]: no binding
B1: FLAG-Kif7-CC (460-600aa) (other)
chain: PDSGIESASVEDQAAQGAGGRKEDEGAQQLLTLQNQVARLEEENRDFLAALEDAMEQYKLQSDRLREQQEEMVELRLRLELVRPGWGGPRLLNGLPPGSFVPRPHTAPLGGAHAHVLGMVPPACLPGDEVGSEQRGEQVTN
notes: Expressed in Expi293F cells for the pull-down; also called Kif7(460-600aa); not shown: FLAG tag from pCMV-BICEP-4 (MCS1), N-terminal by the name

binding result [3]: no binding
B2: FLAG-Kif7-CC (460-600aa) S1-mut (E500A, E501A, E502A, D505A) (other)
chain: PDSGIESASVEDQAAQGAGGRKEDEGAQQLLTLQNQVARLAAANRAFLAALEDAMEQYKLQSDRLREQQEEMVELRLRLELVRPGWGGPRLLNGLPPGSFVPRPHTAPLGGAHAHVLGMVPPACLPGDEVGSEQRGEQVTN
notes: also called Kif7-CC S1; not shown: FLAG tag from pCMV-BICEP-4 (MCS1)

binding result [4]: binds | binding result [5]: no binding
B3: Gli2-ZF-SNAP (other, human, UniProt P10070 418-604, looked up)
chain: KEDLDRDDCKQEAEVVIYETNCHWEDCTKEYDTQEQLVHHINNEHIHGEKKEFVCRWQACTREQKPFKAQYMLVVHMRRHTGEKPHKCTFEGCSKAYSRLENLKTHLRSHTGEKPYVCEHEGCNKAFSNASDRAKHQNRTHSNEKPYICKIPGCTKRYTDPSSLRKHVKTVHGPDAHVTKKQRNDVH
modifications: Alexa 647 dye on the SNAP tag in the TIRF assays
notes: Labeled with Alexa 647 for TIRF microscopy; used unlabeled (as far as told) for cryo-EM; also called Gli2-ZF-SNAP-Alexa 647; Gli2-ZF-Alexa 647; not shown: C-terminal SNAP tag
